*1 amine or outer side, *2 acyl side, *3 side chain or, on linkers, in order; H or OH if unused. [ ]: non-standard residue; d: D form. TyrEtNAc = L-tyrosine O-ethyl acetamide, (S)-3-(4-(2-acetamidoethoxy)phenyl)-2-aminopropanoic acid, CC(=O)NCCOc1ccc(C[C@H](N[*:1])C(=O)[*:2])cc1; dDabMe3 = [(R)-3-amino-3-carboxypropyl]-trimethylazanium, C[N+](C)(C)CC[C@@H](N[*:1])C(=O)[*:2]; Pro(trans-4-NH2) = O=C([C@@H]1C[C@@H](N[*:3])CN1[*:1])[*:2]; Bip(4'-COOH) = N[C@@H](Cc1ccc(-c2ccc(C(=O)O)cc2)cc1)C(=O)O; 1Nal(3S-Me) = C[C@@H](c1cccc2ccccc12)[C@H](N)C(=O)O; Phe(4-COOH) = N[C@@H](Cc1ccc(C(=O)O)cc1)C(=O)O; Trp(6-F) = N[C@@H](Cc1c[nH]c2cc(F)ccc12)C(=O)O; Trp(7-aza) = N[C@@H](Cc1c[nH]c2ncccc12)C(=O)O; hTyr = N[C@@H](CCc1ccc(O)cc1)C(=O)O; hCha = N[C@@H](CCC1CCCCC1)C(=O)O; dDab = NCC[C@@H](N)C(=O)O; dNMeA = CN[C@H](C)C(=O)O

B1: SEQ ID NO: 214 (Example No. 214) (peptide)
peptide: cyclo([TyrEtNAc]W[Phe(4-COOH)]G[Pro(trans-4-NH2)][1Nal(3S-Me)]D[dNMeA]G[Bip(4'-COOH)][Trp(7-aza)]G[dDab][hCha])
SMILES: CC(=O)NCCOc1ccc(C[C@@H]2NC(=O)[C@H](CCC3CCCCC3)NC(=O)[C@@H](CCN)NC(=O)CNC(=O)[C@H](Cc3c[nH]c4ncccc34)NC(=O)[C@H](Cc3ccc(-c4ccc(C(=O)O)cc4)cc3)NC(=O)CNC(=O)[C@@H](C)N(C)C(=O)[C@H](CC(=O)O)NC(=O)[C@H]([C@@H](C)c3cccc4ccccc34)NC(=O)[C@@H]3C[C@@H](N)CN3C(=O)CNC(=O)[C@H](Cc3ccc(C(=O)O)cc3)NC(=O)[C@H](Cc3c[nH]c4ccccc34)NC2=O)cc1
B2: SEQ ID NO: 215 (Example No. 215) (peptide)
peptide: cyclo([TyrEtNAc]W[Phe(4-COOH)]G[Pro(trans-4-NH2)][1Nal(3S-Me)]D[dNMeA]G[Bip(4'-COOH)][Trp(7-aza)]G[dDab][hTyr])
SMILES: CC(=O)NCCOc1ccc(C[C@@H]2NC(=O)[C@H](CCc3ccc(O)cc3)NC(=O)[C@@H](CCN)NC(=O)CNC(=O)[C@H](Cc3c[nH]c4ncccc34)NC(=O)[C@H](Cc3ccc(-c4ccc(C(=O)O)cc4)cc3)NC(=O)CNC(=O)[C@@H](C)N(C)C(=O)[C@H](CC(=O)O)NC(=O)[C@H]([C@@H](C)c3cccc4ccccc34)NC(=O)[C@@H]3C[C@@H](N)CN3C(=O)CNC(=O)[C@H](Cc3ccc(C(=O)O)cc3)NC(=O)[C@H](Cc3c[nH]c4ccccc34)NC2=O)cc1
B3: SEQ ID NO: 213 (Example No. 213) (peptide)
peptide: cyclo([TyrEtNAc][Trp(6-F)][Phe(4-COOH)]G[Pro(trans-4-NH2)][1Nal(3S-Me)]D[dNMeA]G[Bip(4'-COOH)][Trp(7-aza)]S[dDabMe3][hCha])
SMILES: CC(=O)NCCOc1ccc(C[C@@H]2NC(=O)[C@H](CCC3CCCCC3)NC(=O)[C@@H](CC[N+](C)(C)C)NC(=O)[C@H](CO)NC(=O)[C@H](Cc3c[nH]c4ncccc34)NC(=O)[C@H](Cc3ccc(-c4ccc(C(=O)O)cc4)cc3)NC(=O)CNC(=O)[C@@H](C)N(C)C(=O)[C@H](CC(=O)O)NC(=O)[C@H]([C@@H](C)c3cccc4ccccc34)NC(=O)[C@@H]3C[C@@H](N)CN3C(=O)CNC(=O)[C@H](Cc3ccc(C(=O)O)cc3)NC(=O)[C@H](Cc3c[nH]c4cc(F)ccc34)NC2=O)cc1

This assay has as its target Recombinant human IL-1β (BioLegend 579404) (human, UniProt P01584 117-269). In words: cell-based or functional assay.
For the molecule B1, the “MRC5 IC50” value worked out at 0.02 nM. With B2, the “MRC5 IC50” value stood at 0.024 nM. B3: the “MRC5 IC50” value is 0.018 nM.

The values above are taken from patent US20230406885A1, “CYCLIC PEPTIDES FOR TRAPPING INTERLEUKIN-1 BETA” (MERCK SHARP & DOHME LLC, priority 2022, published 2023).
